According to the supplement of paper PMC11246515:
± gives the standard deviation of the averaged measurements.

Experiment: total protein half-life in vivo (active degradation + dilution); higher = more stable protein
[1] = E. coli NCM3722 delta-clpP delta-lon delta-hslV, growth: N-lim chemostat, doubling time 6 h
[2] = E. coli NCM3722 delta-clpP, growth: N-lim chemostat, doubling time 6 h
[3] = E. coli NCM3722 delta-hslV, growth: N-lim chemostat, doubling time 6 h
[4] = wild type E. coli NCM3722, growth: C-lim chemostat, doubling time 6 h
[5] = wild type E. coli NCM3722, growth: C-lim chemostat, doubling time 12 h
[6] = wild type E. coli NCM3722, growth: N-lim chemostat, doubling time 12 h
[7] = wild type E. coli NCM3722, growth: P-lim chemostat, doubling time 6 h
[8] = wild type E. coli NCM3722, growth: P-lim chemostat, doubling time 12 h
[9] = wild type E. coli NCM3722, growth: C-lim chemostat, doubling time 3 h
[10] = E. coli NCM3722 delta-lon, growth: N-lim chemostat, doubling time 6 h
[11] = E. coli NCM3722 delta-smpB, growth: N-lim chemostat, doubling time 6 h
[12] = wild type E. coli NCM3722, growth: N-lim chemostat, doubling time 6 h

MSSRVLTPDVVGIDALVHDHQTVLAKAEGGVVAVFANNAPAFYAVTPARLAELLALEEKLARPGSDVALDDQLYQEPQAAPVAVPMGKFAMYPDWQPDADFIRLAALWGVALREPVTTEELASFIAYWQAEGKVFHHVQWQQKLARSLQIGRASNGGLPKRDVNTVSEPDSQIPPGFRG [P0A8J2]
total protein half-life in vivo [1]: 4.71 ± 0.31 h
total protein half-life in vivo [2]: 4.26 h
total protein half-life in vivo [3]: 1.78 ± 0.14 h
total protein half-life in vivo [4]: 3.49 h
total protein half-life in vivo [5]: 5.15 ± 0.3 h
total protein half-life in vivo [6]: 2.93 ± 0.94 h
total protein half-life in vivo [7]: 2.68 ± 0.39 h
total protein half-life in vivo [8]: 5.6 ± 0.28 h

MSSVSTSGSGAPKSSFSFGRIWDQYGMLVVFAVLFIACAIFVPNFATFINMKGLGLAISMSGMVACGMLFCLASGDFDLSVASVIACAGVTTAVVINLTESLWIGVAAGLLLGVLCGLVNGFVIAKLKINALITTLATMQIVRGLAYIISDGKAVGIEDESFFALGYANWFGLPAPIWLTVACLIIFGLLLNKTTFGRNTLAIGGNEEAARLAGVPVVRTKIIIFVLSGLVSAIAGIILASRMTSGQPMTSIGYELIVISACVLGGVSLKGGIGKISYVVAGILILGTVENAMNLLNISPFAQYVVRGLILLAAVIFDRYKQKAKRTV [P0AE26]
total protein half-life in vivo [9]: 2.54 ± 0.33 h
total protein half-life in vivo [4]: 4.04 ± 0.19 h
total protein half-life in vivo [5]: 7.44 ± 0.65 h

MSSYANHQALAGLTLGKSTDYRDTYDASLLQGVPRSLNRDPLGLKADNLPFHGTDIWTLYELSWLNAKGLPQVAVGHVELDYTSVNLIESKSFKLYLNSFNQTRFNNWDEVRQTLERDLSTCAQGKISVALYRLDELEGQPIGHFNGTCIDDQDITIDNYEFTTDYLENATCGEKVVEETLVSHLLKSNCLITHQPDWGSLQIQYRGRQIDREKLLRYLVSFRHHNEFHEQCVERIFNDLLRFCQPEKLSVYARYTRRGGLDINPWRSNSDFVPSTTRLVRQ
total protein half-life in vivo [1]: 5.36 ± 0.64 h
total protein half-life in vivo [2]: 5.85 ± 1.8 h
total protein half-life in vivo [3]: 5 ± 0.28 h
total protein half-life in vivo [10]: 4.54 ± 0.56 h
total protein half-life in vivo [11]: 4.09 ± 0.3 h
total protein half-life in vivo [9]: 2.81 ± 0.26 h
total protein half-life in vivo [4]: 5.542 ± 0.011 h
total protein half-life in vivo [5]: 8.79 ± 1.1 h
total protein half-life in vivo [12]: 4.41 ± 0.24 h
total protein half-life in vivo [6]: 7.06 ± 0.16 h
total protein half-life in vivo [7]: 5.622 ± 0.049 h
total protein half-life in vivo [8]: 10.92 ± 0.053 h

MSTEIKTQVVVLGAGPAGYSAAFRCADLGLETVIVERYNTLGGVCLNVGCIPSKALLHVAKVIEEAKALAEHGIVFGEPKTDIDKIRTWKEKVINQLTGGLAGMAKGRKVKVVNGLGKFTGANTLEVEGENGKTVINFDNAIIAAGSRPIQLPFIPHEDPRIWDSTDALELKEVPERLLVMGGGIIGLEMGTVYHALGSQIDVVEMFDQVIPAADKDIVKVFTKRISKKFNLMLETKVTAVEAKEDGIYVTMEGKKAPAEPQRYDAVLVAIGRVPNGKNLDAGKAGVEVDDRGFIRVDKQLRTNVPHIFAIGDIVGQPMLAHKGVHEGHVAAEVIAGKKHYFDPKVIPSIAYTEPEVAWVGLTEKEAKEKGISYETATFPWAASGRAIASDCADGMTKLIFDKESHRVIGGAIVGTNGGELLGEIGLAIEMGCDAEDIALTIHAHPTLHESVGLAAEVFEGSITDLPNPKAKKK [P0A9P0]
total protein half-life in vivo [1]: 6.89 ± 0.093 h
total protein half-life in vivo [2]: 6.28 ± 0.24 h
total protein half-life in vivo [3]: 6.35 ± 0.43 h
total protein half-life in vivo [10]: 6.43 ± 0.36 h
total protein half-life in vivo [11]: 6.01 ± 0.24 h
total protein half-life in vivo [9]: 3.11 ± 0.081 h
total protein half-life in vivo [4]: 6.68 ± 0.33 h
total protein half-life in vivo [5]: 12.6 ± 1.1 h
total protein half-life in vivo [12]: 6.23 ± 0.55 h
total protein half-life in vivo [6]: 13.1 ± 0.57 h
total protein half-life in vivo [7]: 6.11 ± 0.12 h
total protein half-life in vivo [8]: 14.4 ± 0.26 h

MSTEKEKMIAGELYRSADETLSRDRLRARQLIHRYNHSLAEEHTLRQQILADLFGQVTEAYIEPTFRCDYGYNIFLGNNFFANFDCVMLDVCPIRIGDNCMLAPGVHIYTATHPIDPVARNSGAELGKPVTIGNNVWIGGRAVINPGVTIGDNVVVASGAVVTKDVPDNVVVGGNPARIIKKL
total protein half-life in vivo [1]: 3.81 h
total protein half-life in vivo [2]: > 8 h
total protein half-life in vivo [3]: 1.77 h
total protein half-life in vivo [9]: 3.24 ± 0.56 h
total protein half-life in vivo [4]: 3.82 ± 0.11 h
total protein half-life in vivo [5]: 5.15 ± 2.1 h
total protein half-life in vivo [7]: > 8 h
total protein half-life in vivo [8]: 7.59 ± 1.4 h

MSTKPLFLLRKAKKSSGEPDVVLWASNDFESTCATLDYLIVKSGKKLSSYFKAVATNFPVVNDLPAEGEIDFTWSERYQLSKDSMTWELKPGAAPDNAHYQGNTNVNGEDMTEIEENMLLPISGQELPIRWLAQHGSEKPVTHVSRDGLQALHIARAEELPAVTALAVSHKTSLLDPLEIRELHKLVRDTDKVFPNPGNSNLGLITAFFEAYLNADYTDRGLLTKEWMKGNRVSHITRTASGANAGGGNLTDRGEGFVHDLTSLARDVATGVLARSMDLDIYNLHPAHAKRIEEIIAENKPPFSVFRDKFITMPGGLDYSRAIVVASVKEAPIGIEVIPAHVTEYLNKVLTETDHANPDPEIVDIACGRSSAPMPQRVTEEGKQDDEEKPQPSGTTAVEQGEAETMEPDATEHHQDTQPLDAQSQVNSVDAKYQELRAELHEARKNIPSKNPVDDDKLLAASRGEFVDGISDPNDPKWVKGIQTRDCVYQNQPETEKTSPDMNQPEPVVQQEPEIACNACGQTGGDNCPDCGAVMGDATYQETFDEESQVEAKENDPEEMEGAEHPHNENAGSDPHRDCSDETGEVADPVIVEDIEPGIYYGISNENYHAGPGISKSQLDDIADTPALYLWRKNAPVDTTKTKTLDLGTAFHCRVLEPEEFSNRFIVAPEFNRRTNAGKEEEKAFLMECASTGKTVITAEEGRKIELMYQSVMALPLGQWLVESAGHAESSIYWEDPETGILCRCRPDKIIPEFHWIMDVKTTADIQRFKTAYYDYRYHVQDAFYSDGYEAQFGVQPTFVFLVASTTIECGRYPVEIFMMGEEAKLAGQQEYHRNLRTLSDCLNTDEWPAIKTLSLPRWAKEYAND
total protein half-life in vivo [1]: 6.07 ± 0.4 h
total protein half-life in vivo [2]: 3.46 h
total protein half-life in vivo [9]: 3.65 ± 0.15 h
total protein half-life in vivo [4]: 4.2 ± 0.11 h
total protein half-life in vivo [5]: 5.8 ± 1.9 h
total protein half-life in vivo [6]: > 16 h
total protein half-life in vivo [7]: 2.43 h
total protein half-life in vivo [8]: 4.82 h

MSTLEPAAQSKPPGGFKLWLSQLQMKHGRKLVIALPYIWLILLFLLPFLIVFKISLAEMARAIPPYTELMEWADGQLSITLNLGNFLQLTDDPLYFDAYLQSLQVAAISTFCCLLIGYPLAWAVAHSKPSTRNILLLLVILPSWTSFLIRVYAWMGILKNNGVLNNFLLWLGVIDQPLTILHTNLAVYIGIVYAYVPFMVLPIYTALIRIDYSLVEAALDLGARPLKTFFTVIVPLTKGGIIAGSMLVFIPAVGEFVIPELLGGPDSIMIGRVLWQEFFNNRDWPVASAVAIIMLLLLIVPIMWFHKHQQKSVGEHG
total protein half-life in vivo [1]: 6.86 h
total protein half-life in vivo [2]: 4.75 ± 1.4 h
total protein half-life in vivo [11]: 5 h
total protein half-life in vivo [4]: 5.16 ± 0.14 h
total protein half-life in vivo [5]: 12 ± 1.7 h
total protein half-life in vivo [12]: 5.38 h
total protein half-life in vivo [6]: 10.6 ± 0.24 h
total protein half-life in vivo [7]: 6.7 h
total protein half-life in vivo [8]: 13.2 ± 1.9 h

MSTLGHQYDNSLVSNAFGFLRLPMNFQPYDSDADWVITGVPFDMATSGRAGGRHGPAAIRQVSTNLAWEHNRFPWNFDMRERLNVVDCGDLVYAFGDAREMSEKLQAHAEKLLAAGKRMLSFGGDHFVTLPLLRAHAKHFGKMALVHFDAHTDTYANGCEFDHGTMFYTAPKEGLIDPNHSVQIGIRTEFDKDNGFTVLDACQVNDRSVDDVIAQVKQIVGDMPVYLTFDIDCLDPAFAPGTGTPVIGGLTSDRAIKLVRGLKDLNIVGMDVVEVAPAYDQSEITALAAATLALEMLYIQAAKKGE
total protein half-life in vivo [1]: 6.58 ± 1 h
total protein half-life in vivo [2]: 5.85 ± 0.27 h
total protein half-life in vivo [3]: 5.33 ± 0.076 h
total protein half-life in vivo [10]: 7.38 ± 0.48 h
total protein half-life in vivo [11]: 5.82 ± 0.58 h
total protein half-life in vivo [9]: 2.9 ± 0.36 h
total protein half-life in vivo [4]: 6.205 ± 0.019 h
total protein half-life in vivo [5]: 11.8 ± 0.43 h
total protein half-life in vivo [12]: 6.72 ± 0.96 h
total protein half-life in vivo [6]: 11.9 h
total protein half-life in vivo [7]: 6.0955 ± 0.0043 h
total protein half-life in vivo [8]: 12.2 ± 1.3 h

MSTLRLLISDSYDPWFNLAVEECIFRQMPATQRVLFLWRNADTVVIGRAQNPWKECNTRRMEEDNVRLARRSSGGGAVFHDLGNTCFTFMAGKPEYDKTISTSIVLNALNALGVSAEASGRNDLVVKTVEGDRKVSGSAYRETKDRGFHHGTLLLNADLSRLANYLNPDKKKLAAKGITSVRSRVTNLTELLPGITHEQVCEAITEAFFAHYGERVEAEIISPNKTPDLPNFAETFARQSSWEWNFGQAPAFSHLLDERFTWGGVELHFDVEKGHITRAQVFTDSLNPAPLEALAGRLQGCLYRADMLQQECEALLVDFPEQEKELRELSAWMAGAVR
total protein half-life in vivo [1]: 4.61 ± 0.64 h
total protein half-life in vivo [3]: 4.05 ± 0.39 h
total protein half-life in vivo [10]: 5.74 ± 1.3 h
total protein half-life in vivo [11]: 4.227 ± 0.0072 h
total protein half-life in vivo [9]: 2.93 ± 0.24 h
total protein half-life in vivo [4]: 5.88 ± 0.59 h
total protein half-life in vivo [5]: 11 ± 0.56 h
total protein half-life in vivo [12]: 4.8 ± 0.4 h
total protein half-life in vivo [6]: 7.13 ± 0.78 h
total protein half-life in vivo [7]: 5.78 ± 0.2 h
total protein half-life in vivo [8]: 11.9 ± 0.67 h

MSTPDNHGKKAPQFAAFKPLTTVQNANDCCCDGACSSTPTLSENVSGTRYSWKVSGMDCAACARKVENAVRQLAGVNQVQVLFATEKLVVDADNDIRAQVESALQKAGYSLRDEQAAEEPQASRLKENLPLITLIVMMAISWGLEQFNHPFGQLAFIATTLVGLYPIARQALRLIKSGSYFAIETLMSVAAIGALFIGATAEAAMVLLLFLIGERLEGWAASRARQGVSALMALKPETATRLRKGEREEVAINSLRPGDVIEVAAGGRLPADGKLLSPFASFDESALTGESIPVERATGDKVPAGATSVDRLVTLEVLSEPGASAIDRILKLIEEAEERRAPIERFIDRFSRIYTPAIMAVALLVTLVPPLLFAASWQEWIYKGLTLLLIGCPCALVISTPAAITSGLAAAARRGALIKGGAALEQLGRVTQVAFDKTGTLTVGKPRVTAIHPATGISESELLTLAAAVEQGATHPLAQAIVREAQVAELAIPTAESQRALVGSGIEAQVNGERVLICAAGKHPADAFTGLINELESAGQTVVLVVRNDDVLGVIALQDTLRADAATAISELNALGVKGVILTGDNPRAAAAIAGELGLEFKAGLLPEDKVKAVTELNQHAPLAMVGDGINDAPAMKAAAIGIAMGSGTDVALETADAALTHNHLRGLVQMIELARATHANIRQNITIALGLKGIFLVTTLLGMTGLWLAVLADTGATVLVTANALRLLRRR
total protein half-life in vivo [1]: 4.91 ± 0.22 h
total protein half-life in vivo [2]: 4.33 ± 0.16 h
total protein half-life in vivo [3]: 4.07 ± 0.092 h
total protein half-life in vivo [10]: 5.05 ± 0.95 h
total protein half-life in vivo [11]: 4.331 ± 0.021 h
total protein half-life in vivo [9]: 2.62 ± 0.26 h
total protein half-life in vivo [4]: 4.55 ± 0.4 h
total protein half-life in vivo [5]: 6.13 ± 1.8 h
total protein half-life in vivo [12]: 3.874 ± 0.016 h
total protein half-life in vivo [6]: 7.59 ± 0.2 h
total protein half-life in vivo [7]: 4.2 ± 0.081 h
total protein half-life in vivo [8]: 7.64 ± 0.21 h
